Results from patent publication US20120172295A1 (INDIANA UNIVERSITY RESEARCH AND TECHNOLOGY, published 2012).
Where “and” joins values, the source holds several entries; their conditions need not be identical. Equal values may be shown once. Read-outs that look alike come from different tables or passages of the source. Starred links: 1 amine or outer side, 2 acyl side, 3 side chain; linkers in the order of their positions; H or OH if unused. Positions of bridges follow the written chain, without caps; N, C: chain ends. Non-standard residues stand in square brackets, D forms with d. Groups on a side chain read outwards from the residue. No end group written: not given here. *: point of attachment. γGlu = O=C(O)[C@H](CCC(=O)[*:2])N[*:1]; PEG40kDa = 40 kDa polyethylene glycol; Stearoyl = CCCCCCCCCCCCCCCCCC(=O)*; Palmitoyl = CCCCCCCCCCCCCCCC(=O)*; Myristoyl = CCCCCCCCCCCCCC(=O)*; DMIA = not defined here; Aib = CC(C)(N)C(=O)O

Assays:
Experiment in all cases: cell-based or functional assay
[1] = molecular target: T1, glucagon receptor (UniProt P47871 26-477, limits assumed)
[2] = molecular target: T2, GIP receptor (UniProt P48546 22-466)
T2 sequence (looked up): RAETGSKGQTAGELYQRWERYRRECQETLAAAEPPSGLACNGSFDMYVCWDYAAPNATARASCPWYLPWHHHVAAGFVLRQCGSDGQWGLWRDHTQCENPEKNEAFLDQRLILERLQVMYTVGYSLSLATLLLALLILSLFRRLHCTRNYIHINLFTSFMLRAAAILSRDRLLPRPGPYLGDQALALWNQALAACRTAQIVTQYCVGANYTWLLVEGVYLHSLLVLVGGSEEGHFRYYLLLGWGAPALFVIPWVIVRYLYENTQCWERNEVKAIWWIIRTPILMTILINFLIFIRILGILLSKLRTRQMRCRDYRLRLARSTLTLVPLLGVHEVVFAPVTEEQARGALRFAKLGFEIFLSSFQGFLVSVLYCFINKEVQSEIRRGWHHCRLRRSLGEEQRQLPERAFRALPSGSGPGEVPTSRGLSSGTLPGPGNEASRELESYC

[3] = molecular target: T3, GLP-1 receptor (UniProt P43220 24-463, limits assumed)
[4] = molecular target: T3, GLP-1 receptor; remark: listed apart in the source
[5] = molecular target: T3, GLP-1 receptor; remark: listed apart in the source
[6] = molecular target: T1, glucagon receptor; remark: listed apart in the source
[7] = molecular target: T3, GLP-1 receptor; remark: listed apart in the source
[8] = molecular target: T1, glucagon receptor; remark: listed apart in the source

T1 sequence (P47871 26-477 limits assumed): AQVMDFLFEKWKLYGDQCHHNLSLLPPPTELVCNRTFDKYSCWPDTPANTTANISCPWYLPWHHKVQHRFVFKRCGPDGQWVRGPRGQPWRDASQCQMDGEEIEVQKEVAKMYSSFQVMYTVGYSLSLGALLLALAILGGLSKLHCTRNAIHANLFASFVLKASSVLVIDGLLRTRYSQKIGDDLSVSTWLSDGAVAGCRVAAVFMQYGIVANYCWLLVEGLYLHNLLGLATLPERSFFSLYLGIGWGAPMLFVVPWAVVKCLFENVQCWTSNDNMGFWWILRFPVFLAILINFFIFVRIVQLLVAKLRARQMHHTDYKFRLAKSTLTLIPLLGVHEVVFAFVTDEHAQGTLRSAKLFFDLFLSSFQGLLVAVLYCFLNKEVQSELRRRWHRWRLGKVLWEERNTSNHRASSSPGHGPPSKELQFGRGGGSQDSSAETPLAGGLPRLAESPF

## H[Aib]QGTFTSDYSKYLD[Aib]QAAKEFIC(PEG 40 kDa)WLMNGGPSSGAPPPSK(Myristoyl)-NH2 [mt-351]
[1]
  % Relative activity: 10.7%
  EC50: 0.196 nM

## H[Aib]QGTFTSDYSKYLDEQAAKEFIC(PEG 40 kDa)WLMNGGPSSGAPPPSK-NH2 [mt-350]
[2]
  % Relative activity: 0%
  EC50: 77.7 nM
[3]
  % Relative activity: 58.9%
  EC50: 0.0107 nM

## H[Aib]QGTFTSDK(Stearoyl)SKYLDEQAAKEFIC(PEG40kDa)WLMNT-NH2 [Peptide Chimera 2-AIB2-K10-acylated]
[4]
  EC50: 0.465 nM

## H[Aib]EGTFTSDK([γGlu-γGlu-Palmitoyl])SKYLDEQAAKEFIAWLMNT [Chi-2, AIB2, E3, Lys10 γE-γE-C16 (SEQ ID NO: 648)]
[5]
  EC50: 0.004 nM
[6]
  EC50: 2.92 nM

## XSQGTFTSDYSKYLDERRAKDFVQWLMNK (DMIA at 1; E16/K20 lactam; Lys 29 with C16 acyl via γ-Glu-γ-Glu) [DMIA1, E16/K20 lactam, Lys29 γE-γE-C16 (SEQ ID NO: 654)]
[6]
  EC50: 0.025 nM

## [DMIA]SQGTFTSDK([γGlu-Palmitoyl])SKYLDERRAKDFVQWLMNT (lactam 16-20; reading uncertain) [DMIA1, E16/K20 lactam, Lys10 γE-C16 (SEQ ID NO: 651)]
[5]
  EC50: 0.006 nM

B1: Chi-2, AIB2, I7, Lys10 γE-γE-C16 (SEQ ID NO: 650) (peptide)
peptide: H[Aib]QGTFISDK([γGlu-γGlu-Palmitoyl])SKYLDEQAAKEFIAWLMNT-NH2
modifications: N-terminus assumed
SMILES: CCCCCCCCCCCCCCCC(=O)N[C@@H](CCC(=O)N[C@@H](CCC(=O)NCCCC[C@H](NC(=O)[C@H](CC(=O)O)NC(=O)[C@H](CO)NC(=O)[C@@H](NC(=O)[C@H](Cc1ccccc1)NC(=O)[C@@H](NC(=O)CNC(=O)[C@H](CCC(N)=O)NC(=O)C(C)(C)NC(=O)[C@@H](N)Cc1c[nH]cn1)[C@@H](C)O)[C@@H](C)CC)C(=O)N[C@@H](CO)C(=O)N[C@@H](CCCCN)C(=O)N[C@@H](Cc1ccc(O)cc1)C(=O)N[C@@H](CC(C)C)C(=O)N[C@@H](CC(=O)O)C(=O)N[C@@H](CCC(=O)O)C(=O)N[C@@H](CCC(N)=O)C(=O)N[C@@H](C)C(=O)N[C@@H](C)C(=O)N[C@@H](CCCCN)C(=O)N[C@@H](CCC(=O)O)C(=O)N[C@@H](Cc1ccccc1)C(=O)N[C@H](C(=O)N[C@@H](C)C(=O)N[C@@H](Cc1c[nH]c2ccccc12)C(=O)N[C@@H](CC(C)C)C(=O)N[C@@H](CCSC)C(=O)N[C@@H](CC(N)=O)C(=O)N[C@H](C(N)=O)[C@@H](C)O)[C@@H](C)CC)C(=O)O)C(=O)O
[5]
  EC50: 0.01 nM
[6]
  EC50: 0.007 nM

## H[dS]QGTFTSDK([γGlu-γGlu-Palmitoyl])SKYLDEQAAKEFIAWLMNT [Chi-2, d-Ser2, Lys10 γE-γE-C16 (SEQ ID NO: 644)]
[5]
  EC50: 0.003 nM
[6]
  EC50: 0.008 nM

B2: Chi-2, AIB2, Lys10 γE-C16 (SEQ ID NO: 645) (peptide)
peptide: H[Aib]QGTFTSDK([γGlu-Palmitoyl])SKYLDEQAAKEFIAWLMNT-NH2
modifications: N-terminus assumed
SMILES: CCCCCCCCCCCCCCCC(=O)N[C@@H](CCC(=O)NCCCC[C@H](NC(=O)[C@H](CC(=O)O)NC(=O)[C@H](CO)NC(=O)[C@@H](NC(=O)[C@H](Cc1ccccc1)NC(=O)[C@@H](NC(=O)CNC(=O)[C@H](CCC(N)=O)NC(=O)C(C)(C)NC(=O)[C@@H](N)Cc1c[nH]cn1)[C@@H](C)O)[C@@H](C)O)C(=O)N[C@@H](CO)C(=O)N[C@@H](CCCCN)C(=O)N[C@@H](Cc1ccc(O)cc1)C(=O)N[C@@H](CC(C)C)C(=O)N[C@@H](CC(=O)O)C(=O)N[C@@H](CCC(=O)O)C(=O)N[C@@H](CCC(N)=O)C(=O)N[C@@H](C)C(=O)N[C@@H](C)C(=O)N[C@@H](CCCCN)C(=O)N[C@@H](CCC(=O)O)C(=O)N[C@@H](Cc1ccccc1)C(=O)N[C@H](C(=O)N[C@@H](C)C(=O)N[C@@H](Cc1c[nH]c2ccccc12)C(=O)N[C@@H](CC(C)C)C(=O)N[C@@H](CCSC)C(=O)N[C@@H](CC(N)=O)C(=O)N[C@H](C(N)=O)[C@@H](C)O)[C@@H](C)CC)C(=O)O
[5]
  EC50: 0.0014 nM
[6]
  EC50: 0.025 nM

## H[dS]QGTFTSDK([γGlu-Palmitoyl])SKYLDEQAAKEFIAWLMNT [Chi-2, d-Ser2, Lys10 γE-C16 (SEQ ID NO: 643)]
[5]
  EC50: 0.0014 nM
[6]
  EC50: 0.011 nM

B3: Peptide Chimera 2-AIB2-K30-acylated (peptide)
peptide: HXQGTFTSDYSKYLDEQAAKEFICWLMNTK
modifications: AIB at 2; Lys acylated with C18 (text says position 10, the name and the sequence say K30); 40 kDa PEG on Cys 24; C-terminal amide
[4]
  EC50: 0.007 nM

B4: Chi-2, AIB2, E3, Lys10 C16 no spacer (SEQ ID NO: 647) (peptide)
peptide: H[Aib]EGTFTSDK(Palmitoyl)SKYLDEQAAKEFIAWLMNT-NH2
modifications: N-terminus assumed
SMILES: CCCCCCCCCCCCCCCC(=O)NCCCC[C@H](NC(=O)[C@H](CC(=O)O)NC(=O)[C@H](CO)NC(=O)[C@@H](NC(=O)[C@H](Cc1ccccc1)NC(=O)[C@@H](NC(=O)CNC(=O)[C@H](CCC(=O)O)NC(=O)C(C)(C)NC(=O)[C@@H](N)Cc1c[nH]cn1)[C@@H](C)O)[C@@H](C)O)C(=O)N[C@@H](CO)C(=O)N[C@@H](CCCCN)C(=O)N[C@@H](Cc1ccc(O)cc1)C(=O)N[C@@H](CC(C)C)C(=O)N[C@@H](CC(=O)O)C(=O)N[C@@H](CCC(=O)O)C(=O)N[C@@H](CCC(N)=O)C(=O)N[C@@H](C)C(=O)N[C@@H](C)C(=O)N[C@@H](CCCCN)C(=O)N[C@@H](CCC(=O)O)C(=O)N[C@@H](Cc1ccccc1)C(=O)N[C@H](C(=O)N[C@@H](C)C(=O)N[C@@H](Cc1c[nH]c2ccccc12)C(=O)N[C@@H](CC(C)C)C(=O)N[C@@H](CCSC)C(=O)N[C@@H](CC(N)=O)C(=O)N[C@H](C(N)=O)[C@@H](C)O)[C@@H](C)CC
[5]
  EC50: 0.005 nM
[6]
  EC50: 46.1 nM

## HSQGTFTSDYSKYLDSRRAQDFVQWLMKGGPSSGAPPPS-NH2 [MKGG30 PSSGAPPPS (SEQ ID NO: 523)]
[7]
  EC50: 0.8 nM
  Relative Potency (%): 3%
[8]
  EC50: 0.61 nM
  Relative Potency (%): 14%

B5: Chi-2, AIB2, I7, Lys10 γE-C16 (SEQ ID NO: 649) (peptide)
peptide: H[Aib]QGTFISDK([γGlu-Palmitoyl])SKYLDEQAAKEFIAWLMNT-NH2
modifications: N-terminus assumed
SMILES: CCCCCCCCCCCCCCCC(=O)N[C@@H](CCC(=O)NCCCC[C@H](NC(=O)[C@H](CC(=O)O)NC(=O)[C@H](CO)NC(=O)[C@@H](NC(=O)[C@H](Cc1ccccc1)NC(=O)[C@@H](NC(=O)CNC(=O)[C@H](CCC(N)=O)NC(=O)C(C)(C)NC(=O)[C@@H](N)Cc1c[nH]cn1)[C@@H](C)O)[C@@H](C)CC)C(=O)N[C@@H](CO)C(=O)N[C@@H](CCCCN)C(=O)N[C@@H](Cc1ccc(O)cc1)C(=O)N[C@@H](CC(C)C)C(=O)N[C@@H](CC(=O)O)C(=O)N[C@@H](CCC(=O)O)C(=O)N[C@@H](CCC(N)=O)C(=O)N[C@@H](C)C(=O)N[C@@H](C)C(=O)N[C@@H](CCCCN)C(=O)N[C@@H](CCC(=O)O)C(=O)N[C@@H](Cc1ccccc1)C(=O)N[C@H](C(=O)N[C@@H](C)C(=O)N[C@@H](Cc1c[nH]c2ccccc12)C(=O)N[C@@H](CC(C)C)C(=O)N[C@@H](CCSC)C(=O)N[C@@H](CC(N)=O)C(=O)N[C@H](C(N)=O)[C@@H](C)O)[C@@H](C)CC)C(=O)O
[5]
  EC50: 0.024 nM and 0.044 nM

## HSQGTFTSDYSKYLDSRRAQDFVQWLMDGGPSSGAPPPS-NH2 [MDGG30 PSSGAPPPS (SEQ ID NO: 525)]
[7]
  EC50: 0.13 nM
  Relative Potency (%): 19%
[8]
  EC50: 0.12 nM
  Relative Potency (%): 72%

## HSQGTFTSDYSKYLDSRRAQDFVQWLVKGGPSSGAPPPS-NH2 [VKGG30 PSSGAPPPS (SEQ ID NO: 524)]
[7]
  EC50: 0.21 nM
  Relative Potency (%): 12%
[8]
  EC50: 1.16 nM
  Relative Potency (%): 7%

B6: Chi-2, AIB2, Lys10 γE-γE-C16 (SEQ ID NO: 646) (peptide)
peptide: H[Aib]QGTFTSDK([γGlu-γGlu-Palmitoyl])SKYLDEQAAKEFIAWLMNT-NH2
modifications: N-terminus assumed
SMILES: CCCCCCCCCCCCCCCC(=O)N[C@@H](CCC(=O)N[C@@H](CCC(=O)NCCCC[C@H](NC(=O)[C@H](CC(=O)O)NC(=O)[C@H](CO)NC(=O)[C@@H](NC(=O)[C@H](Cc1ccccc1)NC(=O)[C@@H](NC(=O)CNC(=O)[C@H](CCC(N)=O)NC(=O)C(C)(C)NC(=O)[C@@H](N)Cc1c[nH]cn1)[C@@H](C)O)[C@@H](C)O)C(=O)N[C@@H](CO)C(=O)N[C@@H](CCCCN)C(=O)N[C@@H](Cc1ccc(O)cc1)C(=O)N[C@@H](CC(C)C)C(=O)N[C@@H](CC(=O)O)C(=O)N[C@@H](CCC(=O)O)C(=O)N[C@@H](CCC(N)=O)C(=O)N[C@@H](C)C(=O)N[C@@H](C)C(=O)N[C@@H](CCCCN)C(=O)N[C@@H](CCC(=O)O)C(=O)N[C@@H](Cc1ccccc1)C(=O)N[C@H](C(=O)N[C@@H](C)C(=O)N[C@@H](Cc1c[nH]c2ccccc12)C(=O)N[C@@H](CC(C)C)C(=O)N[C@@H](CCSC)C(=O)N[C@@H](CC(N)=O)C(=O)N[C@H](C(N)=O)[C@@H](C)O)[C@@H](C)CC)C(=O)O)C(=O)O
[5]
  EC50: 0.0018 nM

## [DMIA]SQGTFTSDK([γGlu-γGlu-Palmitoyl])SKYLDERRAKDFVQWLMNT (lactam 16-20; reading uncertain) [DMIA1, E16/K20 lactam, Lys10 γE-γE-C16 (SEQ ID NO: 652)]
[5]
  EC50: 0.004 nM
